{"source": "patent US7202050B2", "about": "“Methods for measuring phosphatase activity” (priority 2002, dated 2007)", "molecular_target": "T1, V8 protease (Staphylococcus aureus, UniProt P0C1U8)", "T1 construct": "purchased CalBiochem (San Diego, Calif.)", "T1 sequence (P0C1U8 69-336)": "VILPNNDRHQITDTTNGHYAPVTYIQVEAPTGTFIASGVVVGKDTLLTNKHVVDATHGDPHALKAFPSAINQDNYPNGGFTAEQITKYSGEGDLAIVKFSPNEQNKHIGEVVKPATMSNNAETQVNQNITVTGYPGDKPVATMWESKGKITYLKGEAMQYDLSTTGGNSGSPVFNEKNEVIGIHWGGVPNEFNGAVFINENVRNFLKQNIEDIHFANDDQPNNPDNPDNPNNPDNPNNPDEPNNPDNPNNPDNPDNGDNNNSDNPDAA", "format": "biochemical", "details": "30 μM peptide pre-incubated with 40 units CKII 18 hrs at 30° C. in absence of ATP; 1 unit V8 protease, room temperature, in less than three hours; HPLC (FIG. 3)", "experimental": "The peptide (30 μM) was incubated at room temperature with V8 protease (0.1 units) in a buffer containing 20 mM Tris-HCl, 50 mM KCl, 10 mM MgCl2, pH 7.5 (CKII buffer) and aliquots were removed at various time points and flash-frozen in a dry-ice/methanol bath. Products of the protease digestion were then separated on the HPLC column using a 0% to 50% acetonitrile/water gradient in the presence of 0.1% TFA. Peptide was detected using both absorbance at 250 nm and by fluorescence of the rhodamine label using 530 nm excitation and 590 nm emission filters.\nSubsequently, 1 unit of V8 protease was added to each sample and the samples were incubated at room temperature. Aliquots were removed at various time points and flash-frozen in a dry-ice/methanol bath for HPLC analysis as described above.", "data": [{"substance": "TMR-Asp-Glu-Ser-Glu-Glu-Glu-Asp-Lys(Nε-Flsn)-COOH (tetramethylrhodamine-DESEEEDK(fluorescein)-OH) [unphosphorylated peptide]", "values": [{"measurement": "peptide digested by V8 protease", "result": 80, "unit": "%"}]}]}
